Data taken from US20220041702A1 (Innovent, published 2022).

B1: anti-OX40 antibody ADI-20112 (antibody, human IgG1, kappa, V domains shown)
VH: QVQLVESGGGVVQPGRSLRLSCAASGFTFSSYGMHWVRQAPGKGLEWVAVISYDGSNKYYADSVKGRFTISRDNSKNTLYLQMNSLRAEDTAVYYCARGRPWYSETGTSAFDIWGQGTMVTVSS
VL: DIQMTQSPSSLSASVGDRVTITCQASQDISNYLNWYQQKPGKAPKLLIYDASNLETGVPSRFSGSGSGTDFTFTISSLQPEDIATYYCQQSDHYPTFGGGTKVEIKR
notes: also called parent anti-OX40 antibody
B2: IgG1 control antibody (antibody, V domains shown)
VH: EVRLLESGGGLVQPGGSLRLSCAASGFTFSNYAMGWVRQAPGKGLEWVSAISGSGGSTYYADSVKGRFTTSRDDSKNALYLQMNSLRAEDTAVYYCARGGPGWYAADVWGQGTTVTVSS
VL: DIQMTQSPSSLSASVGDRVTITCRASQSISSYLNWYQQKPGKAPKLLIYAASSLQSGVPSRFSGSGSGTDFTLTISSLQPEDFATYYCQQADLPAFAFGGGTKVEIKR
notes: Negative control; also called IgG1 negative control

Experiments:
human OX40-his = target: T1, human OX40-his (human, UniProt P43489 29-216); experiment: ForteBio Octet BLI, antibody on AHC tip, human OX40-His 100 nM in solution, monovalent
T1 construct: Bought soluble protein
T1 sequence (looked up): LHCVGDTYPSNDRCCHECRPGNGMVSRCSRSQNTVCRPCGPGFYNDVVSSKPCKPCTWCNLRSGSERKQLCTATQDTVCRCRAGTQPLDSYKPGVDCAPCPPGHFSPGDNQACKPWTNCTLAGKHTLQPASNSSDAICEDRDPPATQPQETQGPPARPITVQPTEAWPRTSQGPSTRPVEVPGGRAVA
Method: A ForteBio affinity assay was performed according to the method reported in the literature (Estep, P, et al., High throughput solution Based measurement of antibody-antigen affinity and epitope binning MAbs, 2013, 5(2): p. 270-278). Briefly, the AHC sensor (Pall, Catalog No.: 1506091) was immersed in a SD buffer (PBS 1×, BSA 0.1%, Tween 20 0.05%) and equilibrated at room temperature, half an hour before the experiment. […] The anti-human IgG Fc biosensor AHC was immersed in each well containing the antibody solution, and immersed at room temperature for 600 s to load the samples. The sensor was then washed in the SD buffer until it returned to the baseline, and then immersed in a well containing 100 μL of the antigen solution to monitor the binding of the antibody to the antigen. The sensor was then transferred to a well containing 100 μL of the SD buffer to monitor the antibody dissociation. The rotation speed was 400 rpm and the temperature was 30° C. The background-corrected association and dissociation curves were fitted by the Octet analysis software (ForteBio) to generate the binding rate constant (kₒₙ) and dissociation rate constant (kdis), which are then used to calculate the equilibrium dissociation constant (KD).

[1] = target: T2, human OX40 expressed on the surface of cells (CHO cells overexpressing human OX40) (human, UniProt P43489 29-277); experiment: FACS on CHO-OX40 cells, PE anti-human Fc
T2 construct: whole, on cells; also called CHO-OX40 cells; CHO cells overexpressing OX40
T2 sequence (looked up): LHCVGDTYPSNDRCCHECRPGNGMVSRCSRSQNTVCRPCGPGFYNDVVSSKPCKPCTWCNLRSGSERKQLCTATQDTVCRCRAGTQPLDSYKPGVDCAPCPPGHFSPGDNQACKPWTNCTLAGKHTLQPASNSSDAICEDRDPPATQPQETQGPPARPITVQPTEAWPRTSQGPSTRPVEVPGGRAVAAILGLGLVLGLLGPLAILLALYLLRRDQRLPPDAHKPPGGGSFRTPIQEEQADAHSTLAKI

[2] = target: T3, GITR expressed on cell surface (CHO cells overexpressing GITR) (Homo sapiens (Human), UniProt Q9Y5U5 26-241); experiment: FACS on CHO cells overexpressing GITR, PE-conjugated anti-human Fc detection
T3 construct: also called GITR on cell surface
T3 sequence: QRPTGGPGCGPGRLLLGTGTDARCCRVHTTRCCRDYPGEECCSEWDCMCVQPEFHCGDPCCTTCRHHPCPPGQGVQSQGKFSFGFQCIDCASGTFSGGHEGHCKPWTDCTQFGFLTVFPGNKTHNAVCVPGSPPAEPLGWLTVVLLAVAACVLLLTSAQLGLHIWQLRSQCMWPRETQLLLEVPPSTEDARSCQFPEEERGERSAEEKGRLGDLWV

Row | Binder | Kd (human OX40-his) | koff (human OX40-his) | kon (human OX40-his) | EC50 [1] | binding result [2]
1 | B1 | 215 nM | 0.029 s⁻¹ | 135000 M⁻¹ s⁻¹ | 2.19 nM | –
2 | B2 | – | – | – | – | no binding
